Our source for the stoichiometry N values is PMC12071194.

The target of assay [1] is mCherry-BNIP3 (WT). Description: immunoblot for dimers; immunoblot analysis of WT or OMP25C hybrids of BNIP3 and NIX expressed in B/N DKO cells. For orientation: Immunoblotting shows a protein as a band on a membrane.
In assay [2] the target is mCherry-NIX (WT) (UniProt O60238). The description is as above.

Sequence of mCherry-NIX (WT), O60238 1-219 (natural protein; other documents disagree on this pair) (O60238 whole entry): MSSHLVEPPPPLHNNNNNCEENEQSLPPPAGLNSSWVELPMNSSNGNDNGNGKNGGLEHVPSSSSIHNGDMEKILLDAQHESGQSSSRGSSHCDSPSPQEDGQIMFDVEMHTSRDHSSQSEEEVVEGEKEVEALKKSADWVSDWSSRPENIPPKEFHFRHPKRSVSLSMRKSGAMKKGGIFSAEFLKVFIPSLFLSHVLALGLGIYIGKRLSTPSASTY
Sequence of mCherry-BNIP3 (WT) (natural protein) (Q12983 whole entry): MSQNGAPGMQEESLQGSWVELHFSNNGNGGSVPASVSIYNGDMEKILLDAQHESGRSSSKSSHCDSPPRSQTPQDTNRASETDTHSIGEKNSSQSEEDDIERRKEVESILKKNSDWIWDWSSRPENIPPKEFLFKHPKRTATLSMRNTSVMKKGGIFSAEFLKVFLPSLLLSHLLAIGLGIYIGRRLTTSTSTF

In general, stoichiometry N refers to a count of units in the complex or per binding partner. The substance mCherry-BNIP3 (WT) (natural protein) registered a stoichiometry N in assay [1] of 2. The substance “mCherry-NIX (WT), O60238 1-219 (natural protein; other documents disagree on this pair)” came in with a stoichiometry N in assay [2] of 2.
